# Reference: the supplement of paper PMC9112550, “Optimization of the antimicrobial peptide Bac7 by deep mutational scanning” (BMC Biology, 2022)
# Test system: Escherichia coli TOP10
# Test: shrunken log2 fold change of peptide-encoding DNA abundance (4.5 h post-induction vs induction); higher = less antimicrobial activity (less host growth inhibition)
# Conditions: time post-induction: 4.5 h; library: site-saturation at positions 5, 18, 19, 20
# 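Note: peptides expressed intracellularly from a pBAD plasmid library in pooled LB shake-flask culture, induced with 0.3% L-arabinose, DNA abundance read by NGS, three biological replicates, DESeq2 with apeglm shrinkage.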
row,Sequence,shrunken log2 fold change
1,RRIRNRPPRLPRPRPRPKWSPRP,0.0717
2,RRIRNRPPRLPRPRPRPLALPRP,-0.239
3,RRIRNRPPRLPRPRPRPLDQPRP,-0.266
4,RRIRNRPPRLPRPRPRPLERPRP,0.0661
5,RRIRNRPPRLPRPRPRPLEYPRP,-0.816
6,RRIRNRPPRLPRPRPRPLGDPRP,0.218
7,RRIRNRPPRLPRPRPRPLGTPRP,0.135
8,RRIRNRPPRLPRPRPRPLHHPRP,-0.39
9,RRIRNRPPRLPRPRPRPLHTPRP,0.0669
10,RRIRNRPPRLPRPRPRPLIPPRP,-0.208
11,RRIRNRPPRLPRPRPRPLKAPRP,-0.0472
12,RRIRNRPPRLPRPRPRPLKMPRP,-0.136
13,RRIRNRPPRLPRPRPRPLLFPRP,-0.188
14,RRIRNRPPRLPRPRPRPLMCPRP,0.141
15,RRIRNRPPRLPRPRPRPLQDPRP,-0.247
16,RRIRNRPPRLPRPRPRPLQVPRP,-0.136
17,RRIRNRPPRLPRPRPRPLRCPRP,0.0876
18,RRIRNRPPRLPRPRPRPLRGPRP,0.654
19,RRIRNRPPRLPRPRPRPLRIPRP,0.0934
20,RRIRNRPPRLPRPRPRPLRMPRP,0.361
21,RRIRNRPPRLPRPRPRPLSPPRP,-0.215
22,RRIRNRPPRLPRPRPRPLWFPRP,0.0185
23,RRIRNRPPRLPRPRPRPLYFPRP,-0.477
24,RRIRNRPPRLPRPRPRPLYSPRP,-0.761
25,RRIRNRPPRLPRPRPRPMALPRP,-0.0652

row,Sequence,shrunken log2 fold change
1,RRIRNRPPRLPRPRPRPMAYPRP,-0.161
2,RRIRNRPPRLPRPRPRPMFEPRP,0.29
3,RRIRNRPPRLPRPRPRPMFSPRP,-0.186
4,RRIRNRPPRLPRPRPRPMFTPRP,-0.211
5,RRIRNRPPRLPRPRPRPMGMPRP,-0.0761
6,RRIRNRPPRLPRPRPRPMGQPRP,0.128
7,RRIRNRPPRLPRPRPRPMHMPRP,-0.00926
8,RRIRNRPPRLPRPRPRPMITPRP,-0.0996
9,RRIRNRPPRLPRPRPRPMKRPRP,0.0981
10,RRIRNRPPRLPRPRPRPMLIPRP,-0.0638
11,RRIRNRPPRLPRPRPRPMLQPRP,0.00157
12,RRIRNRPPRLPRPRPRPMNEPRP,0.0961
13,RRIRNRPPRLPRPRPRPMNKPRP,0.0642
14,RRIRNRPPRLPRPRPRPMPGPRP,0.0352
15,RRIRNRPPRLPRPRPRPMPVPRP,-0.139
16,RRIRNRPPRLPRPRPRPMRDPRP,-0.00169
17,RRIRNRPPRLPRPRPRPMRGPRP,0.211
18,RRIRNRPPRLPRPRPRPMRNPRP,0.115
19,RRIRNRPPRLPRPRPRPMSMPRP,-0.0143
20,RRIRNRPPRLPRPRPRPMTLPRP,-0.337
21,RRIRNRPPRLPRPRPRPMVNPRP,-0.00142
22,RRIRNRPPRLPRPRPRPMWDPRP,-0.021
23,RRIRNRPPRLPRPRPRPMWLPRP,0.0773
24,RRIRNRPPRLPRPRPRPMWSPRP,-0.095
25,RRIRNRPPRLPRPRPRPNACPRP,-0.0239

row,Sequence,shrunken log2 fold change
1,RRIRNRPPRLPRPRPRPNDEPRP,-0.227
2,RRIRNRPPRLPRPRPRPNDPPRP,0.188
3,RRIRNRPPRLPRPRPRPNEQPRP,-0.0324
4,RRIRNRPPRLPRPRPRPNFCPRP,-0.0258
5,RRIRNRPPRLPRPRPRPNFMPRP,-0.269
6,RRIRNRPPRLPRPRPRPNFTPRP,-0.197
7,RRIRNRPPRLPRPRPRPNGKPRP,-0.16
8,RRIRNRPPRLPRPRPRPNGQPRP,-0.0686
9,RRIRNRPPRLPRPRPRPNIHPRP,-0.457
10,RRIRNRPPRLPRPRPRPNISPRP,-0.476
11,RRIRNRPPRLPRPRPRPNIYPRP,-0.42
12,RRIRNRPPRLPRPRPRPNKGPRP,-0.134
13,RRIRNRPPRLPRPRPRPNKLPRP,-0.36
14,RRIRNRPPRLPRPRPRPNLHPRP,-0.728
15,RRIRNRPPRLPRPRPRPNLWPRP,0.315
16,RRIRNRPPRLPRPRPRPNMMPRP,-0.25
17,RRIRNRPPRLPRPRPRPNNQPRP,-0.703
18,RRIRNRPPRLPRPRPRPNPDPRP,-0.322
19,RRIRNRPPRLPRPRPRPNRDPRP,-0.0094
20,RRIRNRPPRLPRPRPRPNRTPRP,-0.0201
21,RRIRNRPPRLPRPRPRPNTGPRP,0.0312
22,RRIRNRPPRLPRPRPRPNTHPRP,-0.584
23,RRIRNRPPRLPRPRPRPNWCPRP,0.23
24,RRIRNRPPRLPRPRPRPNWNPRP,-0.691
25,RRIRNRPPRLPRPRPRPNWRPRP,0.216

row,Sequence,shrunken log2 fold change
1,RRIRNRPPRLPRPRPRPNWSPRP,-0.106
2,RRIRNRPPRLPRPRPRPNYQPRP,-0.599
3,RRIRNRPPRLPRPRPRPNYVPRP,-0.0488
4,RRIRNRPPRLPRPRPRPPAAPRP,0.676
5,RRIRNRPPRLPRPRPRPPARPRP,0.746
6,RRIRNRPPRLPRPRPRPPCQPRP,-0.294
7,RRIRNRPPRLPRPRPRPPDQPRP,0.184
8,RRIRNRPPRLPRPRPRPPDSPRP,0.0377
9,RRIRNRPPRLPRPRPRPPFCPRP,0.19
10,RRIRNRPPRLPRPRPRPPHAPRP,0.22
11,RRIRNRPPRLPRPRPRPPHHPRP,-0.11
12,RRIRNRPPRLPRPRPRPPHWPRP,0.406
13,RRIRNRPPRLPRPRPRPPKEPRP,-0.166
14,RRIRNRPPRLPRPRPRPPKPPRP,0.145
15,RRIRNRPPRLPRPRPRPPMHPRP,0.0449
16,RRIRNRPPRLPRPRPRPPPGPRP,0.863
17,RRIRNRPPRLPRPRPRPPPMPRP,0.678
18,RRIRNRPPRLPRPRPRPPQIPRP,0.013
19,RRIRNRPPRLPRPRPRPPQKPRP,0.544
20,RRIRNRPPRLPRPRPRPPQYPRP,-0.0544
21,RRIRNRPPRLPRPRPRPPRCPRP,0.389
22,RRIRNRPPRLPRPRPRPPRNPRP,0.196
23,RRIRNRPPRLPRPRPRPPVLPRP,0.124
24,RRIRNRPPRLPRPRPRPPVNPRP,-0.249
25,RRIRNRPPRLPRPRPRPPWMPRP,-0.00995

row,Sequence,shrunken log2 fold change
1,RRIRNRPPRLPRPRPRPQAPPRP,0.31
2,RRIRNRPPRLPRPRPRPQARPRP,-0.0332
3,RRIRNRPPRLPRPRPRPQCAPRP,-0.0727
4,RRIRNRPPRLPRPRPRPQCKPRP,-0.0743
5,RRIRNRPPRLPRPRPRPQCWPRP,0.057
6,RRIRNRPPRLPRPRPRPQCYPRP,-0.136
7,RRIRNRPPRLPRPRPRPQDLPRP,-0.11
8,RRIRNRPPRLPRPRPRPQERPRP,0.0235
9,RRIRNRPPRLPRPRPRPQFHPRP,-0.28
10,RRIRNRPPRLPRPRPRPQGHPRP,-0.296
11,RRIRNRPPRLPRPRPRPQGRPRP,-0.0865
12,RRIRNRPPRLPRPRPRPQHAPRP,-0.0717
13,RRIRNRPPRLPRPRPRPQISPRP,0.00683
14,RRIRNRPPRLPRPRPRPQIVPRP,-0.0891
15,RRIRNRPPRLPRPRPRPQKQPRP,0.00917
16,RRIRNRPPRLPRPRPRPQLGPRP,-0.124
17,RRIRNRPPRLPRPRPRPQMLPRP,-0.409
18,RRIRNRPPRLPRPRPRPQNCPRP,0.0292
19,RRIRNRPPRLPRPRPRPQNKPRP,-0.666
20,RRIRNRPPRLPRPRPRPQNPPRP,-0.117
21,RRIRNRPPRLPRPRPRPQQRPRP,-0.0535
22,RRIRNRPPRLPRPRPRPQRFPRP,-0.155
23,RRIRNRPPRLPRPRPRPQRIPRP,-0.47
24,RRIRNRPPRLPRPRPRPQSRPRP,0.181
25,RRIRNRPPRLPRPRPRPQVCPRP,0.0261

row,Sequence,shrunken log2 fold change
1,RRIRNRPPRLPRPRPRPQWAPRP,-0.188
2,RRIRNRPPRLPRPRPRPQWPPRP,0.00622
3,RRIRNRPPRLPRPRPRPQWTPRP,-0.0119
4,RRIRNRPPRLPRPRPRPQYDPRP,-0.0449
5,RRIRNRPPRLPRPRPRPRAFPRP,0.0795
6,RRIRNRPPRLPRPRPRPRATPRP,0.659
7,RRIRNRPPRLPRPRPRPRCRPRP,0.104
8,RRIRNRPPRLPRPRPRPRDGPRP,0.292
9,RRIRNRPPRLPRPRPRPRDRPRP,-0.0372
10,RRIRNRPPRLPRPRPRPRDTPRP,-0.457
11,RRIRNRPPRLPRPRPRPRECPRP,0.0263
12,RRIRNRPPRLPRPRPRPRETPRP,-0.0277
13,RRIRNRPPRLPRPRPRPRFFPRP,-0.0927
14,RRIRNRPPRLPRPRPRPRFHPRP,0.0377
15,RRIRNRPPRLPRPRPRPRGVPRP,0.195
16,RRIRNRPPRLPRPRPRPRHEPRP,-0.0217
17,RRIRNRPPRLPRPRPRPRHSPRP,-0.424
18,RRIRNRPPRLPRPRPRPRKAPRP,0.473
19,RRIRNRPPRLPRPRPRPRKRPRP,-0.0369
20,RRIRNRPPRLPRPRPRPRMGPRP,0.0394
21,RRIRNRPPRLPRPRPRPRNFPRP,-0.132
22,RRIRNRPPRLPRPRPRPRNYPRP,-0.123
23,RRIRNRPPRLPRPRPRPRPPPRP,1.26
24,RRIRNRPPRLPRPRPRPRSGPRP,-0.0312
25,RRIRNRPPRLPRPRPRPRSMPRP,-0.365
